What was measured:
Assay in all cases: SPR
FcγRIIB = FcγRIIB (UniProt P31994)
FcγRI = FcγRI (UniProt P12314)
FcγRIIA = FcγRIIA (UniProt P12318)
FcγRIIIA-158V = target: FcγRIIIA-158V

Chain of UniProt P12314 (P12314 16-374): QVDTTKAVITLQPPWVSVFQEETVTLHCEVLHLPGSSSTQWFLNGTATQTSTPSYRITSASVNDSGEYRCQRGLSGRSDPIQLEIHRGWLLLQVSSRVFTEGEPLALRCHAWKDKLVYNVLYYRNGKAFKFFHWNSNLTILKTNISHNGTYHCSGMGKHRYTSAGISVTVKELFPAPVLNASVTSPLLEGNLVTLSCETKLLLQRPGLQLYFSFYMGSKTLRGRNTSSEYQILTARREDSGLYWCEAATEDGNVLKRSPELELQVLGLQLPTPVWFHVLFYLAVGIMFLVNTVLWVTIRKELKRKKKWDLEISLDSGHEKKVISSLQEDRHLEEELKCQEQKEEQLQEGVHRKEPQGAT
Chain of UniProt P31994 (P31994 43-310): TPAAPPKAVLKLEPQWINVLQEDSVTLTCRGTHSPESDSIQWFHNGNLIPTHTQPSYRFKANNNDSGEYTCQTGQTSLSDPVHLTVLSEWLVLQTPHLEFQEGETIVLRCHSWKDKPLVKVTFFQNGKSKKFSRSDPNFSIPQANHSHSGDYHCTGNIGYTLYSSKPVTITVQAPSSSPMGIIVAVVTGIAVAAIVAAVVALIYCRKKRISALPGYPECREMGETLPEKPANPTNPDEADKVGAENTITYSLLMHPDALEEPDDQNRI

| Kd (FcγRIIB) [nM] | Kd (FcγRI) [nM] | Kd (FcγRIIA) [nM] | Kd (FcγRIIIA-158V) [nM] | Binder |
| --- | --- | --- | --- | --- |
| 12500 | 1.01 | 2780 | 882 | Palivizumab (antibody, V domains shown) VH: QVTLRESGPALVKPTQTLTLTCTFSGFSLSTSGMSVGWIRQPPGKALEWLADIWWDDKKDYNPSLKSRLTISKDTSKNQVVLKVTNMDPADTATYYCARSMITNWYFDVWGAGTTVTVSS VL: DIQMTQSPSTLSASVGDRVTITCKCQLSVGYMHWYQQKPGKAPKLLIYDTSKLASGVPSRFSGSGSGTEFTLTISSLQPDDFATYYCFQGSGYPFTFGGGTKLEIK |
| – | 10.3 | 9300 | 2110 | Nirsevimab (antibody, V domains shown) VH: QVQLVQSGAEVKKPGSSVMVSCQASGGLLEDYIINWVRQAPGQGPEWMGGIIPVLGTVHYGPKFQGRVTITADESTDTAYMELSSLRSEDTAMYYCATETALVVSETYLPHYFDNWGQGTLVTVSS VL: DIQMTQSPSSLSAAVGDRVTITCQASQDIVNYLNWYQQKPGKAPKLLIYVASNLETGVPSRFSGSGSGTDFSLTISSLQPEDVATYYCQQYDNLPLTFGGGTKVEIK |
| 13500 | 1.24 | 3720 | 1150 | MEDI8897* (antibody, V domains shown) VH: QVQLVQSGAEVKKPGSSVMVSCQASGGLLEDYIINWVRQAPGQGPEWMGGIIPVLGTVHYGPKFQGRVTITADESTDTAYMELSSLRSEDTAMYYCATETALVVSETYLPHYFDNWGQGTLVTVSS VL: DIQMTQSPSSLSAAVGDRVTITCQASQDIVNYLNWYQQKPGKAPKLLIYVASNLETGVPSRFSGSGSGTDFSLTISSLQPEDVATYYCQQYDNLPLTFGGGTKVEIK |
| – | 240 | 34400 | 5150 | MEDI8897*-TM (antibody, V domains shown) VH: QVQLVQSGAEVKKPGSSVMVSCQASGGLLEDYIINWVRQAPGQGPEWMGGIIPVLGTVHYGPKFQGRVTITADESTDTAYMELSSLRSEDTAMYYCATETALVVSETYLPHYFDNWGQGTLVTVSS VL: DIQMTQSPSSLSAAVGDRVTITCQASQDIVNYLNWYQQKPGKAPKLLIYVASNLETGVPSRFSGSGSGTDFSLTISSLQPEDVATYYCQQYDNLPLTFGGGTKVEIK |
